Key:
[1] = molecular target: Recombinant, his tagged full length human frataxin protein (Abcam ab95502) (human) (UniProt Q16595); test: Simoa sandwich 3-step; capture Ab-3
[2] = molecular target: Recombinant, his tagged full length human frataxin protein (Abcam ab95502) (human) (UniProt Q16595); test: Simoa sandwich 2-step (120 min-5 min); capture Ab-1; Diluent 1 + 5% NCS; frataxin 12.3 pg/mL
[3] = molecular target: Recombinant, his tagged full length human frataxin protein (Abcam ab95502) (human) (UniProt Q16595); test: Simoa sandwich 3-step; capture Ab-3; frataxin 100 pg/mL
[4] = molecular target: Recombinant, his tagged full length human frataxin protein (Abcam ab95502) (human) (UniProt Q16595); test: Simoa sandwich 2-step (120 min-5 min); capture Ab-1; Diluent 1 + 5% NCS; frataxin 37.0 pg/mL
[5] = molecular target: Recombinant, his tagged full length human frataxin protein (Abcam ab95502) (human) (UniProt Q16595); test: Simoa sandwich 2-step (120 min-5 min); capture Ab-1; Diluent 1 + 10% NCS; frataxin 66.7 pg/mL
[6] = molecular target: Recombinant, his tagged full length human frataxin protein (Abcam ab95502) (human) (UniProt Q16595); test: Simoa sandwich 3-step; capture Ab-1; frataxin 1000 pg/mL
[7] = molecular target: Recombinant, his tagged full length human frataxin protein (Abcam ab95502) (human) (UniProt Q16595); test: Simoa sandwich 2-step; capture Ab-1; 150 pM SβG; frataxin 0.686 pg/mL
[8] = molecular target: Recombinant, his tagged full length human frataxin protein (Abcam ab95502) (human) (UniProt Q16595); test: Simoa sandwich 3-step; capture Ab-4
[9] = molecular target: Recombinant, his tagged full length human frataxin protein (Abcam ab95502) (human) (UniProt Q16595); test: Simoa sandwich 2-step (120 min-5 min); capture Ab-1; frataxin 667 pg/mL
[10] = molecular target: Recombinant, his tagged full length human frataxin protein (Abcam ab95502) (human) (UniProt Q16595); test: Simoa sandwich 2-step (120 min-5 min); capture Ab-1; frataxin 24.7 pg/mL
[11] = molecular target: Recombinant, his tagged full length human frataxin protein (Abcam ab95502) (human) (UniProt Q16595); test: Simoa sandwich 3-step; capture Ab-4; frataxin 1000 pg/mL
[12] = molecular target: Recombinant, his tagged full length human frataxin protein (Abcam ab95502) (human) (UniProt Q16595); test: Simoa sandwich 3-step; capture Ab-2
[13] = molecular target: Recombinant, his tagged full length human frataxin protein (Abcam ab95502) (human) (UniProt Q16595); test: Simoa sandwich 3-step; capture Ab-1
[14] = molecular target: Recombinant, his tagged full length human frataxin protein (Abcam ab95502) (human) (UniProt Q16595); test: Simoa sandwich 3-step; capture Ab-2; frataxin 1000 pg/mL
[15] = molecular target: Recombinant, his tagged full length human frataxin protein (Abcam ab95502) (human) (UniProt Q16595); test: Simoa sandwich 2-step; capture Ab-2; frataxin 500 pg/mL
[16] = molecular target: Recombinant, his tagged full length human frataxin protein (Abcam ab95502) (human) (UniProt Q16595); test: Simoa sandwich 2-step; capture Ab-1

Sequence of UniProt Q16595 (Q16595 42-210): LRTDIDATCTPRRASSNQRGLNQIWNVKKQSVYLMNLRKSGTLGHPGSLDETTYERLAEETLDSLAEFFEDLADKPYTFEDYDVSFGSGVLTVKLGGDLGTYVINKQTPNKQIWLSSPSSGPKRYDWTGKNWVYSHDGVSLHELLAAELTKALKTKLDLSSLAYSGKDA

Ab-3, mouse monoclonal [18A5DB1] to Frataxin (Abcam ab110328) (antibody)
LOD [1]: 11.9 pg/mL
Ave AEB [2]: 0.123 AEB
S/B [2]: 11.2
Ave AEB [3]: 0.0152 AEB
S/B [3]: 3.21
Ave AEB [4]: 0.341 AEB
S/B [4]: 31.1
Ave AEB [5]: 0.602 AEB
S/B [5]: 33.1
Ave AEB [6]: 17.4 AEB
S/B [6]: 352
Ave AEB [7]: 0.0717 AEB
S/B [7]: 1.6
LOD [8]: 1.3 pg/mL
AEB rep1 [9]: 3.57 AEB
AEB rep2 [9]: 3.99 AEB
AEB rep3 [9]: 3.61 AEB
Ave AEB [9]: 3.73 AEB
S/B [9]: 451
AEB rep1 [10]: 0.129 AEB
AEB rep2 [10]: 0.117 AEB
AEB rep3 [10]: 0.142 AEB
Ave AEB [10]: 0.129 AEB
S/B [10]: 15.7
Ave AEB [11]: 25.2 AEB
S/B [11]: 215
LOD [12]: 0.65 pg/mL
LOD [13]: 1.14 pg/mL
Ave AEB [14]: 17.2 AEB
S/B [14]: 388
Ave AEB [15]: 25.1 AEB
S/B [15]: 263
LOD [16]: 0.27 pg/mL

— patent US20220308072A1
